Source: paper PMC7979930
Values belong to the substance of their own block, whether it stands above or below them.

Tests used:
[1] = molecular target: CBF3, dephosphorylated (CBF3core + Ndc10 NTD) (budding yeast) (UniProt P40969+P35203+P52286+P32504); assay: EMSA; conditions: Ndc10 dissociates, main text says CEN3 nucleosome, Methods CEN3-601, EMSA: 10 mM Tris pH 7.4, 75 mM NaCl, 1 mM DTT, 60 min on ice, 530 nM nucleosome, 106-1166 nM CBF3/CBF3core, 4% PAGE 0.2x TBE 4 C, EtBr stain, Hill fit
[2] = molecular target: CBF3core, dephosphorylated (Cep3 dimer, Ctf13, Skp1) (budding yeast) (UniProt P40969+P35203+P52286); assay: EMSA; conditions: 1 mM DTT, 60 min on ice, 530 nM nucleosome, 106-1166 nM CBF3/CBF3core, 4% PAGE 0.2x TBE 4 C, EtBr stain, Hill fit
[3] = molecular target: CEN3 CENP-A^Cse4 nucleosome (budding yeast | yeast) (UniProt P36012); assay: native gel or EMSA; CBF3/CBF3core with CEN3 nucleosomes, room temperature 60 min; native agarose gels in 0.2 x TBE, SYBR Green I stain, bands quantified
[4] = molecular target: CEN3 CENP-A^Cse4 nucleosome with H2B_5mut (budding yeast | yeast) (UniProt P36012); assay: as above
[5] = molecular target: CEN3 CENP-A^Cse4_∆L1 nucleosome (budding yeast | yeast) (UniProt P36012); assay: as above
[6] = molecular target: CEN3 CENP-A^Cse4_∆L1 nucleosome with H2B_5mut (budding yeast | yeast) (UniProt P36012); assay: as above
[7] = Fig. 3c legend says CEN3, Supp. Fig. 4f says CEN3-601, EMSA: 10 mM Tris pH 7.4, 75 mM NaCl

Substance: ATCGAGAATCCCGGTGCCGAGGCCGCTCAATTGGTCGTAGACAGCTCTAGCACCGCTTAAACGCACGTACGCGCTGTCCCCCGCGTTTTAATATTAGTGTATTTGATTTCCGAAAGTTAAAAAAGAAATAGTAAGAAATCATCCGAT (double strand) [CEN3-601 Cse4 nucleosome]
Kd [1]: 550 nM | Kd ([2]; NucCse4/H2B, Fig. 3c legend says CEN3, Supp. Fig. 4f and Methods say CEN3-601, EMSA: 10 mM Tris pH 7.4, 75 mM NaCl): 320 nM

Substance: ATCGAGAATCCCGGTGCCGAGGCCGCTCAATTGGTCGTAGACAGCTCTAGCACCGCTTAAACGCACGTACGCGCTGTCCCCCGCGTTTTAATATTAGTGTATTTGATTTCCGAAAGTTAAAAAAGAAATAGTAAGAAATCATCCGAT (double strand) [CEN3-601 Cse4/H2B_5mut nucleosome]
Kd [2, 7]: 350 nM

Substance: ATCGAGAATCCCGGTGCCGAGGCCGCTCAATTGGTCGTAGACAGCTCTAGCACCGCTTAAACGCACGTACGCGCTGTCCCCCGCGTTTTAATATTAGTGTATTTGATTTCCGAAAGTTAAAAAAGAAATAGTAAGAAATCATCCGAT (double strand) [CEN3-601 Cse4_deltaL1 nucleosome]
Kd [2, 7]: 360 nM

Substance: ATCGAGAATCCCGGTGCCGAGGCCGCTCAATTGGTCGTAGACAGCTCTAGCACCGCTTAAACGCACGTACGCGCTGTCCCCCGCGTTTTAATATTAGTGTATTTGATTTCCGAAAGTTAAAAAAGAAATAGTAAGAAATCATCCGAT (double strand) [CEN3-601 Cse4_deltaL1/H2B_5mut nucleosome]
Kd [2, 7]: 680 nM

Kd [3]: 320 nM | Kd [4]: 350 nM | Kd [5]: 360 nM | Kd [6]: 680 nM
Substance: dephosphorylated CBF3core (from UniProt P40969 1-608; P52286 1-194; P35203 1-478) (complex)
